Measurements taken from article PMC8374900 (ACS Omega, 2021).

Target: the molecule itself
Experiment: AUC

B1: endo_N-BAR L187C (C108A) labeled with A488 (domain or fragment, rat, UniProt O35179 1-247, looked up)
chain: MSVAGLKKQFHKATQKVSEKVGGAEGTKLDDDFKEMERKVDVTSRAVMEIMTKTIEYLQPNPASRAKLSMINTMSKIRGQEKGPGYPQAEALLAEAMLKFGRELGDDANFGPALGEVGEAMRELSEVKDSLDMEVKQNFIDPLQNLHDKDLREIQHHLKKLEGRRLDFDYKKKRQGKIPDEELRQACEKFDESKEIAESSMFNLLEMDIEQVSQLSALVQAQLEYHKQAVQILQQVTVRLEERIRQA
modifications: Alexa Fluor 488 C5-maleimide on the introduced Cys 187
In the case of B1, the “stoichiometry N” value is reported as 2.
